Experimental data: the nanobody polyreactivity screen of Harvey et al. (2022)

test: yeast display, Sf9 membrane polyspecificity reagent, FACS + sequencing; frameworks hold sequencing errors
Outline: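 After 36–48 hours of galactose induction, yeast (Saccharomyces cerevisiae BJ5465) displaying a synthetic nanobody library were stained at 4 °C for 1 hour with 10% biotinylated, detergent-solubilized Sf9 membrane reagent. Streptavidin microbeads enriched the stained cells before FACS sorting into low and high (top ~1%) gates on anti-HA and streptavidin fluorescence. Each clone's polyreactivity label reflects its gate of origin.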

| Sequence | polyreactivity (PSR sort gate) |
| --- | --- |
| HVQLVESGGGLVQAGGSLRLSCAASGLTYPRYTMGWYRQAPGKESELVAAISSSTGTTNYADSVKGRFTISRDNAKINVYLQMYSLKPEDTAVYYCAAGGSLYAYGYRSRYGYWGQGTQVTVSS | low polyreactivity |
| HVQLVESGGGLVQAGGSLRLSCAASGNICYGYAMGGYRQAPGKERELVARINWSGSRTYYADSVKGRFTISRDNAKNTVYLQMNSLKPDDTAVYYCNTSTSRVPGNGDYWGQGTQVTVSS | high polyreactivity |
| HVQLVESGGGLVQAGGSLRLSCAASGNTFTEYAMGWYRQAPGKERELVASITGSGGSTYADSVRGRFTISRDNAKNTVYLQMNSLKPEDTAVYYCAKDPRYEYVGSEYGYWGQGTQVTVSS | low polyreactivity |
| HVQLVESGGGLVQAGGSLRLSCAASGRIFGYYAIGWYRQATRKERELVAAITINGRRTYYADSVKGRFTISRDNAKNTVYLQMKSLKPEDTAVYLCTATSRYNRLGYWGQGTQVSVSS | high polyreactivity |
| HVQLVESGGGLVQAGGSLRLSCAASGRIFRKYAMGWYRQAPGKERELVAVITGSAGSTYYADSVKGRFTISRDNAKNTVYLQMNSLKPEDTAVYYCAKVSTSWDYGIYPFDEGYYWGQGTKVTVSS | low polyreactivity |
| HVQLVESGGGLVQAGGSLRLSCAASGRISDRYAMGWSRQAPGKEREFVAAISWSGASTYYADSVKGRFTISRDNAKNTVYLQMNSLKAEDTAVYYCAARRRHKYDYWGQGTQVTVSS | high polyreactivity |
| HVQLVESGGGLVQAGGSLRLSCAASGRNYYTYTMGRSRQAPGKEKQLVATITVGTRTNYADSVKGRFTISRDNAQNTVYLQMNSLKRVDTAVYYCNAEWSSKRFTGDDYWGQGTQVTVSS | low polyreactivity |
| HVQLVESGGGLVQAGGSLRLSCAASGRTFGIYAMGWYRKAPGKERELVAAITGRGGSTHYADSVKGRFTISRDNAKNTVYLQMNSLKPEDTAVYYCAADYRYNRGITSNKDYDYWGQGTQVTVSS | low polyreactivity |
| HVQLVESGGGLVQAGGSLRLSCAASGRTFIYNAMGWYRQAPGKEREFVAANTWSGATTRYADSVKGRFTISRDNAKNTVYLEMNSLKPEDTAVYYCAKGGFYYYGWRSSMDYWGQGTQVTVSS | high polyreactivity |
| HVQLVESGGGLVQAGGSLRLSCAASGRTFRLYAMGRYRQATGKEMELVARIRWRGGTTYFADSVKGRFTISRDNAKNTVYLQMNRLKPEDTAVYYCAARAYPTWRTYYYCGQGTQVTVSS | high polyreactivity |
| HVQLVESGGGLVQAGGSLRLSCAASGSIFDSYVMGWYRQAPGTERELVAAITYSGGSTYADSVKGRFTISRDNAKNTVYLQMNSLKPEDTAVYYCAAASYFYLYLLEDYWGQGTQVTVSS | low polyreactivity |
| HVQLVESGGGLVQAGGSLRLSCAASGSIFVLNAMGWYRQAPGKERELVAAITNVGSTYYADSVKGRFTISRDNAKNTVYLQMNSLKPEDTAVYYCNADPGEVLVGYDYWGQGTQVTVSS | low polyreactivity |
| HVQLVESGGGLVQAGGSLRLSCAASGSIFYGNTMGWYRQAPGKEREFVAAINKSDDSTYYADSVKGRFTISRDNAKNTVYLQMNSLKPEDTAVYYCWGPGTQVTVSS | low polyreactivity |
| HVQLVESGGGLVQAGGSLRLSCAASGSIYALYDLGRYRQAPGKERELVASITGSGGNTYYADSVKGRFTISRDNAKNTVYLQMNSLKPEDTAVYYCAADFRYAGYSYDYWGQGTQVSVSS | low polyreactivity |
| HVQLVESGGGLVQAGGSLRLSCAASGSTCRYYARGWYRQAPGKERELGAAISGRGARTYYADSVKGRFTISRDNAKNTVYLQMNSLKPEDTAVYYCAAVGYRYRHSRYYWGQGTQVTVSS | high polyreactivity |
| HVQLVESGGGLVQAGGSLRLSCAASGSTFAGNAMGWYRQAPGKERELVAAITFSGGRTDYADSVKGRFTISRDNAKNTVYLQMNSLKPEDTAVYYCAAPADDTVHYQNYYWGQGTQVTVSS | low polyreactivity |
| HVQLVESGGGLVQAGGSLRLSCAASGSTFGRYVMGWHRQAPGKERELVAAISKNAGSTYYADSVKGRFTISRDNAKNTVYLKMASLKPEDTAVYYCAADWRTKGYDSLGQGTQVTVSS | high polyreactivity |
